From patent publication US5985836A, “Alpha-1 proteinase inhibitor binding peptides” (Bayer Corporation, priority 1998, dated 1999)
Ends that are not written are not given here.

Columns and labels:
A1PI [1] = molecular target: T1, A1PI (Homo sapiens, UniProt P01009); test: A1PI purification from 5 mg hSA + 1 mg A1PI on peptide column, A1PI mass balance; assay type: binding; details: A1PI, 5 mg hSA + 1 mg A1PI, 4° C.
T1 construct: Human plasma is currently the only approved source of therapeutic AlPI
Protocol: Confirmatory binding assays were performed in a column chromatographic format on a microbore HPLC using individual peptide sequences synthesized directly onto the Toyopearl 650 M Chelate resin which had been modified with Totda followed by an alanine residue (A-Totda-Toyopearl), at a final substitution density of 0.1 mmole/g resin. The resin was packed into 0.4×5 cm columns (Thomson, Springfield, Va.) and tested on the Michrom HPLC system (Michrom BioResources, Auburn, Calif.). The elution program for all trials utilized the following method. The column was pre-equilibrated with equilibration buffer (as above). 1 ml of sample was injected and allowed sufficient time to flowthrough the column using equilibration buffer. The column was then washed with step elutions of 1M NaCl and 3M NaCl in equilibration buffer. The column was exposed to equilibration buffer with 0.1M NaCl. Any remaining protein was eluted with elution buffer (2% by volume glacial acetic acid in water).
A Gilson FC204 fraction collector at the HPLC outlet collected individual eluates for further analysis. Fractions collected from the 2% acetic acid eluates were neutralized with 2M Tris, pH 10.5 to bring the pH to neutrality. The protein samples were reconstituted in equilibration buffer unless otherwise stated. The samples were analyzed by the integration of the absorbance at 280 nm or by immunonephelometry. The specific method of determination is presented for each figure.
Columns were assayed with a mixture of 5 mg human serum albumin (hSA)+1 mg AlPI at 4° C. (Table 4, Seq. ID 1-11, 15, 17) and 20° C. (Table 5, Seq. ID 1-10, 13, 15, 17). The chromatography method was modified to provide for a 10 minute residence time of sample in the column by decreasing the flow to 17 μl/min (10 cm/hr) upon injection. Following the incubation, the flow was set at 865 μl/min (413 cm/hr) for the step elutions of 1M NaCl, 3M NaCl, and 2% acetic acid. The mass balances presented are based upon immunonephelometry. The Percent Eluted value is protein-specific and based on the amount of the protein eluted in a […]

A1PI [2] = molecular target: T1, A1PI; test: Purification of A1PI from Effluent II+III on peptide column, A1PI mass balance; assay type: binding; details: 1 ml Eff. II+III, 4° C.; for Mass A1PI per Eluate Fraction, 1M NaCl / Mass A1PI per Eluate Fraction, 2% Acetic Acid / Mass A1PI per Eluate Fraction, Flowthrough: * Below detection limit
Protocol: (§1) Sequences 1-11 and 15 were assayed with Effluent II+III (Eff. II+III). Eff. II+III is a process intermediate in the Cohn plasma fractionation process. The feed stream contains 20% (by volume) ethanol, 20-25 mg/ml hSA and approximately 1 mg/ml AlPI. The stream also contains other proteins including anti-thrombin III (AT3), immunoglobin G (IgG), immunoglobin A (IgA), apolipoprotein alpha-1 (Apo A-1), transferrin (Trf), haptoglobin (Hpt), and alpha-1 acid glycoprotein (AAG) at concentrations ranging from 0.1-1 mg/ml.
(§2) The columns were assayed using the same technique as the hSA+AlPI experiments, allowing for a 10 minute residence time followed by a constant flow rate of 865 μl/min with step elutions of 1M NaCl, 3M NaCl, and 2% acetic acid. All experiments were conducted at 4° C. The mass balances for the injection of 1 ml Eff. […] The AlPI was enriched from 3% of the total protein in the feed to upwards of 50% in the acid eluate.

[3] = molecular target: T2, apolipoprotein alpha-1 (Apo A-1) (Homo sapiens, UniProt P02647); test: Purification from Effluent II+III, Apo A-1 mass balance; assay type: binding; details: 1 ml Eff. II+III, 4° C.
T2 construct: Eff; II+III is a process intermediate in the Cohn plasma fractionation process; tissue Bayer Corporation (Clayton, N.C.); host or cells: plasma fraction: Cohn Effluent II+III
Protocol: as §1, §2

A1PI [4] = molecular target: T1, A1PI; test: A1PI binding on peptide-resin column, injection of 1 mg A1PI in equilibration buffer; details: for % of Total A1PI Eluted by Fraction (Based on Absorbance at 280 nm), 1M NaCl / % of Total A1PI Eluted by Fraction (Based on Absorbance at 280 nm), 2% Acetic Acid / % of Total A1PI Eluted by Fraction (Based on Absorbance at 280 nm), Flowthrough: Trp position mutations, 1 mg A1PI
Procedure, shortened: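 Peptides synthesized on A-Totda-Toyopearl chelate resin (0.1 mmole/g) packed in 0.4×5 cm columns; 1 mg A1PI injected in equilibration buffer at 4 °C or 20 °C, 865 or 523 μl/min. Flowthrough, 1M/3M NaCl washes and 2% acetic acid eluate quantified by A280 or immunonephelometry as percent of total eluted.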

Immunoglobulin G (IgG) = test: Purification from Effluent II+III, IgG mass balance; assay type: binding, human; details: 1 ml Eff. II+III, 4° C.
Protocol: as §1, §2

Immunoglobulin A (IgA) = test: Purification from Effluent II+III, IgA mass balance; assay type: binding, human; details: 1 ml Eff. II+III, 4° C.
Protocol: as §1, §2

[5] = A1PI, * as in Tables 4, 5 (below detection limit)
[6] = 1 mg A1PI in equilibration buffer, 4° C.
[7] = 1 mg A1PI in equilibration buffer, 20° C.
[8] = * as in Tables 4, 5 (below detection limit)

T2 sequence (P02647 19-267): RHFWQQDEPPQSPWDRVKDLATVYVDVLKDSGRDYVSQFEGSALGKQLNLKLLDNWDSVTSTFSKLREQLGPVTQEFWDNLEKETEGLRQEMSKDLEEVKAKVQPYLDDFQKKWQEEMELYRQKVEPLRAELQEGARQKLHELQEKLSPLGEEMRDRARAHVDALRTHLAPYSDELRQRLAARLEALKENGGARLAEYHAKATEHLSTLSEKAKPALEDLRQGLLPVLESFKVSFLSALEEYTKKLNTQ
T1 sequence (P01009 25-418): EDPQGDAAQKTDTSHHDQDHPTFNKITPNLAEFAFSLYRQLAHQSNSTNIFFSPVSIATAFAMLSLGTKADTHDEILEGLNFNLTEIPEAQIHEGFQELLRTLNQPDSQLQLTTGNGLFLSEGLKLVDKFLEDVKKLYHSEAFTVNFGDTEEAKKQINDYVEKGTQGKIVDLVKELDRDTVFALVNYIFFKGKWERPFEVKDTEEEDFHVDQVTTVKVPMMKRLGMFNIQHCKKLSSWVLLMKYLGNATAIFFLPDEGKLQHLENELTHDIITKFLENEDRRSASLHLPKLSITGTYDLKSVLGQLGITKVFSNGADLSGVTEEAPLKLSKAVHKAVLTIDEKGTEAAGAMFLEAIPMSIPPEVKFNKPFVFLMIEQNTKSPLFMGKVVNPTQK

QYHFWY
Mass Protein per Eluate Fraction, 1M NaCl (A1PI [1]; * Below detection limit): 0.35 mg
Mass Protein per Eluate Fraction, 2% Ac. Acid (A1PI [1]; * Below detection limit): 0.35 mg
Mass Protein per Eluate Fraction, Flow (A1PI [1]; * Below detection limit): 0.06 mg
Percent Eluted by Fraction, 1M NaCl (A1PI [1]; relative to total eluted): 46%
Percent Eluted by Fraction, 2% Ac. Acid (A1PI [1]; relative to total eluted): 46%
Percent Eluted by Fraction, 3M NaCl (A1PI [1]; relative to total eluted): 0%
Percent Eluted by Fraction, Flow (A1PI [1]; relative to total eluted): 7%
Percent Eluted by Fraction, 1M NaCl (A1PI [2]; A1PI): 6%
Percent Eluted by Fraction, 2% Acetic Acid (A1PI [2]; A1PI): 75%
Percent Eluted by Fraction, 3M NaCl (A1PI [2]; A1PI): 0%
Percent Eluted by Fraction, Flow (A1PI [2]; A1PI): 20%
Mass Protein per Eluate Fraction, 1M NaCl (A1PI [2]; [5]): 0.06 mg
Mass Protein per Eluate Fraction, 2% Acetic Acid (A1PI [2]; [5]): 0.80 mg
Mass Protein per Eluate Fraction, Flow (A1PI [2]; [5]): 0.21 mg
Percent Eluted by Fraction, 1M NaCl [3]: 0%
Percent Eluted by Fraction, 2% Acetic Acid [3]: 0%
Percent Eluted by Fraction, 3M NaCl [3]: 0%
Percent Eluted by Fraction, Flow [3]: 0%
Percent A1PI Eluted by Fraction Based on Absorbance at 280 nm, 1M NaCl (A1PI [4]; [6]): 74%
Percent A1PI Eluted by Fraction Based on Absorbance at 280 nm, 2% Acetic Acid (A1PI [4]; [6]): 26%
Percent A1PI Eluted by Fraction Based on Absorbance at 280 nm, Flowthrough (A1PI [4]; [6]): 0%
Percent A1PI Eluted by Fraction, 1M NaCl (A1PI [4]; [7]): 0%
Percent A1PI Eluted by Fraction, 2% Acetic Acid (A1PI [4]; [7]): 4%
Percent A1PI Eluted by Fraction, Flowthrough (A1PI [4]; [7]): 96%
Percent Eluted by Fraction, 1M NaCl (Immunoglobulin G (IgG)): 10%
Percent Eluted by Fraction, 2% Acetic Acid (Immunoglobulin G (IgG)): 0%
Percent Eluted by Fraction, 3M NaCl (Immunoglobulin G (IgG)): 0%
Percent Eluted by Fraction, Flow (Immunoglobulin G (IgG)): 90%
Mass Protein per Eluate Fraction, 1M NaCl (Immunoglobulin G (IgG); [8]): 0.02 mg
Mass Protein per Eluate Fraction, Flow (Immunoglobulin G (IgG); [8]): 0.21 mg
Percent Eluted by Fraction, 1M NaCl (Immunoglobulin A (IgA)): 31%
Percent Eluted by Fraction, 2% Acetic Acid (Immunoglobulin A (IgA)): 38%
Percent Eluted by Fraction, 3M NaCl (Immunoglobulin A (IgA)): 0%
Percent Eluted by Fraction, Flow (Immunoglobulin A (IgA)): 31%
Mass Protein per Eluate Fraction, 1M NaCl (Immunoglobulin A (IgA); [8]): 0.11 mg
Mass Protein per Eluate Fraction, 2% Acetic Acid (Immunoglobulin A (IgA); [8]): 0.13 mg
Mass Protein per Eluate Fraction, Flow (Immunoglobulin A (IgA); [8]): 0.11 mg

V I A L V R: VIWLVR with Trp at position 3 replaced by Ala (VIALVR)
Mass A1PI per Eluate Fraction, 1M NaCl (A1PI [2]; Table 11): 0.05 mg
Mass A1PI per Eluate Fraction, 2% Acetic Acid (A1PI [2]; Table 11): 0.35 mg
Mass A1PI per Eluate Fraction, Flowthrough (A1PI [2]; Table 11): 0.18 mg
Percent Eluted by Fraction, 1M NaCl (A1PI [2]; Table 11, A1PI): 8%
Percent Eluted by Fraction, 2% Acetic Acid (A1PI [2]; Table 11, A1PI): 61%
Percent Eluted by Fraction, Flowthrough (A1PI [2]; Table 11, A1PI): 31%
% of Total A1PI Eluted by Fraction (Based on Absorbance at 280 nm), 1M NaCl (A1PI [4]; 4° C.): 92%
% of Total A1PI Eluted by Fraction (Based on Absorbance at 280 nm), 2% Acetic Acid (A1PI [4]; 4° C.): 8%
% of Total A1PI Eluted by Fraction (Based on Absorbance at 280 nm), Flowthrough (A1PI [4]; 4° C.): 0%
% of Total A1PI Eluted by Fraction (Based on Absorbance at 280 nm), 1M NaCl (A1PI [4]; 20° C.): 36%
% of Total A1PI Eluted by Fraction (Based on Absorbance at 280 nm), 2% Acetic Acid (A1PI [4]; 20° C.): 53%
% of Total A1PI Eluted by Fraction (Based on Absorbance at 280 nm), Flowthrough (A1PI [4]; 20° C.): 10%

V I L L V R: VIWLVR with Trp at position 3 replaced by Leu (VILLVR)
Mass A1PI per Eluate Fraction, 1M NaCl (A1PI [2]; Table 11): 0.07 mg
Mass A1PI per Eluate Fraction, 2% Acetic Acid (A1PI [2]; Table 11): 0.54 mg
Mass A1PI per Eluate Fraction, Flowthrough (A1PI [2]; Table 11): 0.42 mg
Percent Eluted by Fraction, 1M NaCl (A1PI [2]; Table 11, A1PI): 7%
Percent Eluted by Fraction, 2% Acetic Acid (A1PI [2]; Table 11, A1PI): 52%
Percent Eluted by Fraction, Flowthrough (A1PI [2]; Table 11, A1PI): 41%
% of Total A1PI Eluted by Fraction (Based on Absorbance at 280 nm), 1M NaCl (A1PI [4]; 4° C.): 7%
% of Total A1PI Eluted by Fraction (Based on Absorbance at 280 nm), 2% Acetic Acid (A1PI [4]; 4° C.): 93%
% of Total A1PI Eluted by Fraction (Based on Absorbance at 280 nm), Flowthrough (A1PI [4]; 4° C.): 0%
